The labels stand for the following.
B1: wild-type 14-3-3γ-3xHA [human] / GFP-SLP76 [human] (parent)
chain 1: MVDREQLVQKARLAEQAERYDDMAAAMKNVTELNEPLSNEERNLLSVAYKNVVGARRSSWRVISSIEQKTSADGNEKKIEMVRAYREKIEKELEAVCQDVLSLLDNYLIKNCSETQYESKVFYLKMKGDYYRYLAEVATGEKRATVVESSEKAYSEAHEISKEHMQPTHPIRLGLALNYSVFYYEIQNAPEQACHLAKTAFDDAIAELDTLNEDSYKDSTLIMQLLRDNLTLWTSDQQDDDGGEGNN
chain 2: MALRNVPFRSEVLGWDPDSLADYFKKLNYKDCEKAVKKYHIDGARFLNLTENDIQKFPKLRVPILSKLSQEINKNEERRSIFTRKPQVPRFPEETESHEEDNGGWSSFEEDDYESPNDDQDGEDDGDYESPNEEEEAPVEDDADYEPPPSNDEEALQNSILPAKPFPNSNSMYIDRPPSGKTPQQPPVPPQRPMAALPPPPAGRNHSPLPPPQTNHEEPSRSRNHKTAKLPAPSIDRSTKPPLDRSLAPFDREPFTLGKKPPFSDKPSIPAGRSLGEHLPKIQKPPLPPTTERHERSSPLPGKKPPVPKHGWGPDRRENDEDDVHQRPLPQPALLPMSSNTFPSRSTKPSPMNPLPSSHMPGAFSESNSSFPQSASLPPYFSQGPSNRPPIRAEGRNFPLPLPNKPRPPSPAEEENSLNEEWYVSYITRPEAEAALRKINQDGTFLVRDSSKKTTTNPYVLMVLYKDKVYNIQIRYQKESQVYLLGTGLRGKEDFLSVSDIIDYFRKMPLLLIDGKNRGSRYQCTLTHAAGYP

In the test the parent is B1. Briefly: co-immunoprecipitation, quantified Western blot. The conditions noted are these: with GFP-SLP76 [human]; N2a cells; read off a plot.
In the case of chain 1 R57C, the ratio to parent (fold of wild-type) is 0.2.

The values above are taken from article PMC12025923 (Cells, 2025).
